# In PMC3909490:
# Target: FITC-casein (UniProt P02662)
# Test: fluorescence polarisation
# UniProt P02662, sequence (P02662 16-214): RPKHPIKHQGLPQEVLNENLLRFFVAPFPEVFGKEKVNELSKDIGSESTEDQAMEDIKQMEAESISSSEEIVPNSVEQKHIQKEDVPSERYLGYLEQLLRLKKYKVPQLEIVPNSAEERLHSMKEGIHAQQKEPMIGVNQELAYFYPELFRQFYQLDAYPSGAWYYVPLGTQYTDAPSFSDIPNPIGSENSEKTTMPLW
row,Kd,Substance
1,65 nM,Hsp104^WT (from UniProt P31539 1-908) (natural protein)
2,80 nM,Hsp104^A503V (from UniProt P31539 1-908) (natural protein)
